Test results taken from US20210371516A1.
Changes are numbered by the printed parent chain.

B1: PTA-2357 VH4/VK2 IgG1 antibody (antibody, V domains shown)
VH: QVQLVQSGAEVKKPGASVKVSCKGSGYPFTDYTIHWVRQAPGQGLEWIGHISTYSGNTNNNQKFKGRATMTVDKSTSTAYMELRSLRSDDTAVYYCARGDYYGSFYKFEYWGQGTTVTVSS
VL: DIKMTQSPSSLSASVGDRVTITCGASENIYGALNWFQRKPGKAPKLLIYGATNLADGMPSRFSGSGSGRDFTLTISSLQPEDFATYFCQNVLSIPYTFGQGTKLEIK
B2: PTA-2357 VH5/VK2 IgG1 antibody (antibody, V domains shown)
VH: B1 VH with A68V
VL: B1 VL
B3: PTA-2357 VH1/VK3 IgG1 antibody (antibody, V domains shown)
VH: B1 VH with A9P, V11L, P41H, T91S, A92T
VL: B1 VL with K3Q
B4: PTA-2357 VH2/VK3 IgG1 antibody (antibody, V domains shown)
VH: B1 VH with P41H, T91S, A92T
VL: B1 VL with K3Q
B5: PTA-2357 VH3/VK3 IgG1 antibody (antibody, V domains shown)
VH: B1 VH with A92T
VL: B1 VL with K3Q
B6: PTA-2357 VH4/VK3 IgG1 antibody (antibody, V domains shown)
VH: B1 VH
VL: B1 VL with K3Q
B7: PTA-2357 VH5/VK3 IgG1 antibody (antibody, V domains shown)
VH: B1 VH with A68V
VL: B1 VL with K3Q
B8: PTA-2358 VH1/VK1 IgG1 antibody (antibody, V domains shown)
VH: EVQLVQSGAELKKPGASVKLSCTASGFNIKDYYMHWVKQAPGQGLEWIGWIDPGNGDTECAPKFQGRATLTADTSINTAYLELSRLRSDDTAVYYCNAPYYSGSSHFDYWGQGTTVTVSS
VL: DIVLTQSPDSLAVSLGERATINCRASKSVSASGYSFLHWYQQKPGQPPKLLIYLASNLESGVPDRFSGSGSGTDFTLTISSLQEEDVATYYCQHSRELRTFGQGTKLEIK
B9: PTA-2358 VH2/VK1 IgG1 antibody (antibody, V domains shown)
VH: B8 VH with L11V
VL: B8 VL
B10: PTA-2357 VH1/VK1 IgG1 antibody (antibody, V domains shown)
VH: B1 VH with A9P, V11L, P41H, T91S, A92T
VL: B1 VL with P40Q, K103Q
B11: PTA-2358 VH3/VK1 IgG1 antibody (antibody, V domains shown)
VH: B8 VH with L11V, K38R
VL: B8 VL
B12: PTA-2358 VH4/VK1 IgG1 antibody (antibody, V domains shown)
VH: B8 VH with L11V, K38R, N77S
VL: B8 VL
B13: PTA-2358 VH5/VK1 IgG1 antibody (antibody, V domains shown)
VH: B8 VH with L11V, L20V, K38R, L70I, N77S, L81M
VL: B8 VL
B14: PTA-2358 VH1/VK2 IgG1 antibody (antibody, V domains shown)
VH: B8 VH
VL: B8 VL with E84A
B15: PTA-2358 VH2/VK2 IgG1 antibody (antibody, V domains shown)
VH: B8 VH with L11V
VL: B8 VL with E84A
B16: PTA-2358 VH3/VK2 IgG1 antibody (antibody, V domains shown)
VH: B8 VH with L11V, K38R
VL: B8 VL with E84A
B17: PTA-2358 VH4/VK2 IgG1 antibody (antibody, V domains shown)
VH: B8 VH with L11V, K38R, N77S
VL: B8 VL with E84A
B18: PTA-2358 VH5/VK2 IgG1 antibody (antibody, V domains shown)
VH: B8 VH with L11V, L20V, K38R, L70I, N77S, L81M
VL: B8 VL with E84A
B19: PTA-2358 VH1/VK3 IgG1 antibody (antibody, V domains shown)
VH: B8 VH
VL: B8 VL with L4M, E84A, T89V
B20: PTA-2358 VH2/VK3 IgG1 antibody (antibody, V domains shown)
VH: B8 VH with L11V
VL: B8 VL with L4M, E84A, T89V
B21: PTA-2357 VH2/VK1 IgG1 antibody (antibody, V domains shown)
VH: B1 VH with P41H, T91S, A92T
VL: B1 VL with P40Q, K103Q
B22: PTA-2358 VH3/VK3 IgG1 antibody (antibody, V domains shown)
VH: B8 VH with L11V, K38R
VL: B8 VL with L4M, E84A, T89V
B23: PTA-2358 VH4/VK3 IgG1 antibody (antibody, V domains shown)
VH: B8 VH with L11V, K38R, N77S
VL: B8 VL with L4M, E84A, T89V
B24: PTA-2358 VH5/VK3 IgG1 antibody (antibody, V domains shown)
VH: B8 VH with L11V, L20V, K38R, L70I, N77S, L81M
VL: B8 VL with L4M, E84A, T89V
B25: PTA-2357 VH1/VK2 IgG1 antibody (antibody, V domains shown)
VH: B1 VH with A9P, V11L, P41H, T91S, A92T
VL: B1 VL
B26: PTA-2357 VH2/VK2 IgG1 antibody (antibody, V domains shown)
VH: B1 VH with P41H, T91S, A92T
VL: B1 VL
B27: PTA-2357 VH3/VK2 IgG1 antibody (antibody, V domains shown)
VH: B1 VH with A92T
VL: B1 VL
B28: PTA-2357 VH3/VK1 IgG1 antibody (antibody, V domains shown)
VH: B1 VH with A92T
VL: B1 VL with P40Q, K103Q
B29: PTA-2357 VH4/VK1 IgG1 antibody (antibody, V domains shown)
VH: B1 VH
VL: B1 VL with P40Q, K103Q
B30: PTA-2357 VH5/VK1 IgG1 antibody (antibody, V domains shown)
VH: B1 VH with A68V
VL: B1 VL with P40Q, K103Q

Experiments:
[1] = molecular target: antigen on NCI-H187 classic small cell lung carcinoma cells (ATCC Number: CRL-5804) recognised by PTA-2357; assay: competition flow cytometry on NCI-H187 cells against mouse PTA-2357; NS0-derived
[2] = molecular target: antigen on NCI-H187 classic small cell lung carcinoma cells (ATCC Number: CRL-5804) recognised by PTA-2357; assay: competition flow cytometry on NCI-H187 cells against mouse PTA-2357; CHO-K1-derived
[3] = molecular target: antigen on NCI-H187 classic small cell lung carcinoma cells (ATCC Number: CRL-5804) recognised by PTA-2358; assay: competition flow cytometry on NCI-H187 cells against mouse PTA-2358; CHO-K1-derived
[4] = molecular target: antigen on NCI-H187 classic small cell lung carcinoma cells (ATCC Number: CRL-5804) recognised by PTA-2358; assay: competition flow cytometry on NCI-H187 cells against mouse PTA-2358; NS0-derived

Row | Binder | Relative IC50 (fold of chimeric PTA-2357) [1] | Relative IC50 (fold of chimeric PTA-2357) [2] | Relative IC50 (fold of chimeric PTA-2358) [3] | Relative IC50 (fold of chimeric PTA-2358) [4]
1 | B1 | 1.34 | 1.5 | – | –
2 | B2 | – | 2.43 | – | –
3 | B3 | – | 2 | – | –
4 | B4 | 1.23 | 0.82 | – | –
5 | B5 | – | 1.64 | – | –
6 | B6 | – | 2.06 | – | –
7 | B7 | – | > 3 | – | –
8 | B8 | – | – | 1.09 | 1.11
9 | B9 | – | – | 1.28 | 1.03
10 | B10 | – | > 3 | – | –
11 | B11 | – | – | 1.09 | 1.12
12 | B12 | – | – | 1.48 | 2.65
13 | B13 | – | – | 1.69 | 1.65
14 | B14 | – | – | 2.38 | –
15 | B15 | – | – | 1.29 | 1.03
16 | B16 | – | – | 1.81 | –
17 | B17 | – | – | 1.68 | 1.49
18 | B18 | – | – | 1.68 | 1.11
19 | B19 | – | – | 2.68 | –
20 | B20 | – | – | > 3 | –
21 | B21 | – | > 3 | – | –
22 | B22 | – | – | 2.43 | –
23 | B23 | – | – | > 3 | –
24 | B24 | – | – | > 3 | –
25 | B25 | 1.06 | 1.2 | – | –
26 | B26 | 1.16 | 1.36 | – | –
27 | B27 | 1.06 | 1.57 | – | –
28 | B28 | – | > 3 | – | –
29 | B29 | – | > 3 | – | –
30 | B30 | – | > 3 | – | –
